Laboratory results from the DeepSol protein solubility set.

Assay: soluble on expression in E. coli; label from the status in PepcDB or PDB records

Sequence | soluble on expression in E. coli
MGSDKIHHHHHHMQGLGLIVCRQGSFQFSLDNKCASAKAGETLFIHEESWVQVLQETEDVEILILAYQIEPIRDIIGNSVVSMYMYSKLTPELSCVWNTGEEDEIMKYMSLIDSVLEMEESVFSLYEQKLLLLALTYRICSVYNRKLISAGQETGGRKNEIFVRLIQLIEQYYMQERSVEFYADKLCLSPKYLSALSKSICGYTVQELVFKAIIRKCISLLKNTQKNIQEISNEFGFPNASYFGTFFKKQMGMSPQQYRRNL | not soluble
MSLTSWNATIDPDNTIRFKEPDVLFDSGKSQVKERFKVVLDDFFPRYVKILSQEKYKGDIEEIRIEGHTSSEWLNAKTLEERYLGNAALSQARAFEVLKYCFALERIKGEQDWLIKVLRANGLSFAKPLDSEEHSRRVEFRTLTRSHQKMLKILDLSKEGHHHHHH | not soluble
MVLKRKGLLIILDGLGDRPIKELNGLTPLEYANTPNMDKLAEIGILGQQDPIKPGQPAGSDTAHLSIFGYDPYETYRGRGFFEALGVGLDLSKDDLAFRVNFATLENGIITDRRAGRISTEEAHELARAIQEEVDIGVDFIFKGATGHRAVLVLKGMSRGYKVGDNDPHEAGKPPLKFSYEDEDSKKVAEILEEFVKKAQEVLEKHPINERRRKEGKPIANYLLIRGAGTYPNIPMKFTEQWKVKAAGVIAVALVKGVARAVGFDVYTPEGATGEYNTNEMAKAKKAVELLKDYDFVFLHFKPTDAAGHDNKPKLKAELIERADRMIGYILDHVDLEEVVIAITGDHSTPCEVMNHSGDPVPLLIAGGGVRTDDTKRFGEREAMKGGLGRIRGHDIVPIMMDLMNRSEKFGA | soluble
MGSDKIHHHHHHMTQPTLPPPPRTRFTVSDFNRMGGSVGFNYRLPGQEGGGTGIENLCIAEGRVEECEIRPGITLIVSDVHVYHHYESTSVMTPRFSAIVMLQGQARARLDKQDDVRLAAQSGLNALYGDTVAMTGVHPAGQRLRSVNLSVTAPEAADDEYTSEIIWKLMQSSAPRLRRWPVPHHLLLSIEHLLECDWDQPLRNMVREGVGTQLLAHALAALQHAPVTHRGLTQRDRQLLERVRERLHEAPGEDHTLDDLARLACMSPSTLRAKFHAVYHRSVFSWLRERRLEVAREQLARGWSVQQAAHFVGYRHATNFATAFRERYGVAPSQLG | not soluble
MSLQYIVVTGGVISGLGKGTITSSIGHILKDSGFKVSSVKIDPYINYDAGTMNPYQHGEVFVLDDGSEVDLDLGNYERFMDINLSWKNNITTGKVYLEVIEKERHGDYLGKTVQIIPHITDEIKRRIRDVATSSKADFVLIEVGGTVGDIESMPFLEAVRQLKREENNVIFAHVTLVPEIGPTEEQKTKPTQHSVTALREIGIQPDIIFARSKNRLLEETKKRISLFTDVPEGGIISVYDVENVYLLPEVMVNEGFISYLSKLSGKEIKYRDSWKAYTENIKHPKDRVKIAIVGKYVDLHDAYISHKEAFSHVTGNTGIAVDIKWLDSEKVKDDQSMLSDVDAILIPGGFGYRGVEGKIAATRFALENHIPFLGICLGFQVAVIEIARDIIGLQNANSTEFDPATKYPVIDILPEQKGIKDLGGTMRLGSKKVLIKDGTLAKRIYGTDTIYERHRHRYEVNPNYISIIEKAGFVFSGTDEDGIRMEILEKKGDESFIATQYHSEFKSRPLNPSRVHLHLVQQALIYKKNKDIGEAVKLRSSVEGHHHHHH | soluble
MINLPAEGHVNPTLSLVKAFTERGDHVHYITTEHFKGRIEDLGATVYTHPDLLKDISIDTETSYGLNSFFHVHVQTSLYILEITKQLCESINFDFVIYDIFGAGELVKEYLQIPGIVSSPIFLIPTEFLETLPFHPNAEIPFQPDEISEQLLYRMEHEFGVKPKNNLQFMHNKGDITLVYTSRYFQPNSDLFGENNIFIGPSISKRKTNVEFPLELLKGKKVIYISMGTLLEGLEPFFNTCIDTFSDFKGVVVMAIGDRNDRSKIKKAPDNFIIASYVLQSEILNEADVFITHGGMNSVHDAIYFNVPFVIIPHDKDQPMIAQRLTELEAAHRLLKEHVNVQSLKEAVTDVLLNEKYKHGIRKLKDSFLQCGGAKEAISVIKSLLNK | not soluble
AMKNWKTSAESILTTGPVVPVIVVKKLEHAVPMAKALVAGGVRVLNVTLRTECAVDAIRAIAKEVPEAIVGAGTVLNPQQLAEVTEAGAQFAISPGLTEPLLKAATEGTIPLIPGISTVSELMLGMDYGLKEFKFFPAEANGGVKALQAIAGPFSQVRFCPTGGISPANYRDYLALKSVLCIGGSWLVPADALEAGDYDRITKLAREAVEGAKL | soluble
MTVKAVFFDIDGTLLNDRKNIQKTTQKAIQQLKKQGIMVGLATGRGPGFVQPFLENFGLDFAVTYNGQYILTRDKVLYQNQLPKSMIYKVIRYANEKKREISLGTASGLAGSRIIDMGTSPFGQVISSFVPKSWARTVEGSFKHLIRRIKPQSFRNLVTIMREPIYQVVLVASQAETKKIQEKFPHIKITRSSPYSLDLISVDQSKIKGIERLGEMFGFDLSEVMAFGDSDNDLEMLSGVGIGIAMGNAETVVKDGAHFTTDSNNNDGISKALAHYGLIH | not soluble
MSLNSFNLEGKVALVTGCKRGIGKAMAVALAQAGVDVIGVSASLESEGSDVAKAVEATGRKFSAYKCDFNSREAIYTFIEQVKAAHPVIDILVNNAGTILRAPAAEHGDSLWDEVINVNLNSQFILSRELGREMVKRGSGKVIFTASLLTFQGGITVPGYAASKGAIGQLTKALANEWAGSGVNVNAIAPGYIATDNTQALRDDPERATSILSRIPQNRWGKPEDFAGPVVFLASEAASYVNGSVMVVDGGWMGREGHHHHHH | not soluble
MYSGVQIRTGSNPKIRRNKIWGGQNGGILVYNSGLGCIEDNEIFDNAMAGVWIKTDSNPTLRRNKIHDGRDGGICIFNGGRGLLEENDIFRNAQAGVLISTNSHPILRKNRIFDGFAAGIEITNHATATLEGNQIFNNRFGGLFLASGVNVTMKDNKIMNNQDAIEKAVSRGQCLYKISSYTSYPMHDFYRCHTCNTTDRNAICVNCIKKCHQGHDVEFIRHDRFFCDCGAGTLSNPCTLAGEPTHDTDTLYDSAPPIESNTLQHN | soluble
MNEQPAACRIKVEALGAGFAPAAEQWAERLGLALQVDEAEFALQVGEQGLQLQQLGPDAPGPVRVDFVEGGAAHRRLYGGGSGQMIAKAVGVAQGVRPRVLDATAGLGKDGFVLATLGCEMSLIERQPLIGALLEDGLARAAQDAEVGPIVARMHLLKGNSIELMRNWQGEPPQVIYLDPMFPHREKSALVKKEMRLFRPLVGDDNDAPALLAAALALASHRVVVKRPRKAPCIEGPKPSHGLEGKSSRYDIYPKKALKALEHHHHHH | not soluble
MTGALAMMPSTSSPYPLLAPPTCSSRLPPLRCFVGLRWSAPRIQVREYPDAVAGIAKGAGGRGGRFRAPASSISQPCSRTIIITNEHVQNADFPPNYSKREKKPFPIPVLELRRRAKERAKKAEGKPKRSLPPPKNGMLIKRLIPVAYKVYNARILLINNLKRLMKVIPVKGCKHCSEIHVGSVGHPFRTCKGMSSDKRRGQHDWGGTLVEAVFVPVEAYHLEDRLGKRIPHDQRFAVPRIPALVELCIQAGVNLPEYPTKRRRKPIIKIGKNEFVDANEDDLPDPEPYKLEHPILEELNDNEIIAPASPEEIVALAEETLEAWEVVRDGALKLMKGYAVRVCGYCPEVHIGASGHKARNCGAFKHQQRNGQHGWQAAVLDDLIPPRYVWHLPESGEDLQRDLKSFYGQAPAIVEICVQAGAKVPEKYKATMRLDIGIPTSLREAEMVV | not soluble
MGSDKIHHHHHHMQRRVPLSPDAAHCSSCMLGHVCVPVGMPANEVEKLDELVKERVRVERGKSLYELDDPLDAVYGVRYGSLKTQLEDSSGQLQITGFHLPGEIVGLDGMIESKHVSSAVALEDSEVCVIRLPEIDRVSTQLPSLQQQFRRLMSREITRSHQMLATVGAMRSEQRLAAFLLNLSQRYAALGYSSTEFVLRMSREEIGNYLGLTLETVSRLFSRFGREGLIRINQREVRLIDLPGLKQLIGQESC | not soluble
MSLNYRFRFAPYQRPFKTPLQTHHGLWTVREGIMLSLRDERGRITQGEIVPLPWFGTETLEEAIAFCAAFGGNITSEQIAAIPDALPACQFGFETAQLNLASTENLVSLPPTKFCQLIRRSPTMFQDLQTLLQQGFRTFKLKIALDIPATEIALCQQILETLPADGRLRLDANGGLTLEQVKQWLDWGESQAKLEFIEQPLAPAHFSNLLQLNAEFQTQIALDESVSQVASLEHCYAQGWRGVFVIKLAIAGFPSRLQDVCQTKKLDFVLSTVFETAVGQRALLNFSQDFVQSRRALGMGGTQWIEGHHHHHH | soluble
MSLTMDVPPTIHVPLPPTSYPAFDAAIFTDIGGRKHQEDRFTLCPQLVPGRDDCAFFGVFDGTVGDFASENVKDLVVPQLISSPAWQEVTEMLRSDVPATEVDEKLPQLLDQAVDDMYKNADNELVKMCEQLNKDYASSTSVTAVLAKGFVAVGHLGDSRIAMGVETPNGLNCEFLTVDHKPDMPHEKLRIMRNGGSVEYLHNHNNKPFIRGGDFSFRKSRGEQPMQLQYSRAFGGKDLKMYGLSNQPDVRVVRVTPQHRVMILATDGLWDVMSAAQAVEIAMQARQEGRNPAQALVEMTLAEQQSRNQSADNITAMTVFFKKTDEGHHHHHH | soluble
MVGQREPAPVEEVKPAPEQPAEPQQPVPTVPSVPTIPQQPGPIEHEDQTAPPAPHIRHYDWNGAMQPMVSKMLGADGVTAGSVLLVDSVNNRTNGSLNAAEATETLRNALANNGKFTLVSAQQLSMAKQQLGLSPQDSLGTRSKAIGIARNVGAHYVLYSSASGNVNAPTLQMQLMLVQTGEIIWSGKGAVSQQLEHHHHHH | soluble
MGSDKIHHHHHHMRRTDKKKTFGQQSSKVTQLADTLSQAISMKKFREGDSLPSINQLSAEYGVSRDTVFKAFLDLRERGLIDSTPGKGYYVTSQVTNVLLLLDQYTPFKEALYNSFVKHLPINYKVDLLFHQYNERLFNTIIRESVGKYNKYIVMNFDNEKFSMVLNKIHPTKLLLLDFGKFEKEKYSYICQDFDEAFYQALLMLKEKLRHYPQLVLLFSKNLKHPQSSKEYFTRFCEEQGFLCEIQEDIENLTVRKGVVYIAIKQQDVVKVVKQGRLEGLKCGKDFGLLAYNDIPSYEVIDEGITSLSIDWEMMGNEAANFVLNNVPIQKYLPTEVRLRKSL | not soluble
MTDFSVWETAPFGATVDHILQRYHNVHRAQFEELVPLAQKVAQVHADTFPAEIAELLAYMQNELLMHMMKEERMLFPMINQGVGRGAAMPIGVMMHEHEEHDRAIARLKELTDNFQPPEGACGSWTRLYALAKEMVEDLNDHIHLENDILFARVLDS | soluble
